This is an account of results in publication PMC7948472 (2020).

In this assay the target is T1, Histone H4 methylated peptide, SGRGK(me3)GGKGLGKGGAK (trimethyl-lysine K(me3) at K5).
T1 peptide: SGRGKGGKGLGKGGAK
Put plainly: SPR. (In general: In SPR one partner is held on a chip, and binding of the other changes the refractive index at the surface.)

B1: C9 Fab (Fab, V domains shown)
VH: QSVEESGGRLVTPGTPLTLTCTVSGFSLTSYDMSWVRQAPGKGLEYIGFISSTTGGTYYASWAKGRFTISKTSTTVDLKITSPTTEDTATYFCAAGSWYNMWGPGTLVTVSS
VL: AQVLTQTPSSVSAAVGGTVTINCQASQSVYNNNWLGWYQQKPGQPPKLLIYKASTLASGVPSRFRGSGSGTQFTLTISDVQCDDAATYYCAGGYNGNIFPFGGGTEVVVT
The term Kd denotes the constant that tells how readily two partners part at equilibrium. High values mean lower affinity, low ones higher affinity. Take B1: binding was put at a Kd of 1600 µM.

B2: D6 Fab (Fab, V domains shown)
VH: QTVKESGGRLVTPGGTLTLTCTVSGFSLSRYAMSWVRQAPGEGLEYIGWINTYGSAYYASWVNGRFTISKTSTTMDLKMTSLTAADTATYFCVRWFADGGMDPWGPGTLVTVSS
VL: ALVLTQTPSPVSAAVGGAVSISCQSSQNIYKDNELSWYQQKPGQPPKLLIYKASTLASGVPSRFSGSGSGTQFTLTISGVQCDDAATYYCQGSRYNNGWDSGFGGGTEVVVK
Take B2: binding was put at a Kd of 870 µM. This Kd is about 1.8-fold lower than that of the molecule before.
